Assay results published in US20230416357A1 (UCB, published 2023).
Like-named read-outs stand apart in the source and are kept apart here.

Legend:
Human IL22 [1] = molecular target: T1, Human IL22 (human, UniProt Q9GZX6 34-179); assay: cell-based or functional assay
T1 sequence: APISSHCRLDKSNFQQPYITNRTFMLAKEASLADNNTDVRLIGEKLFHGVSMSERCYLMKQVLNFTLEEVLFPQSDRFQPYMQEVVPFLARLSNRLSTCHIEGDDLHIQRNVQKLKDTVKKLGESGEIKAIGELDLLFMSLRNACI

Human IL22 [2] = molecular target: T1, Human IL22; assay: SPR Biacore 8K; single experiment
Human IL22 [3] = molecular target: T1, Human IL22; assay: SPR Biacore T200; antibody captured on anti-human Fab (280 RU), IL22 injected at 20 nM
Human IL22 [4] = molecular target: T1, Human IL22; assay: cell-based or functional assay; remark: listed apart in the source
Human IL22 [5] = molecular target: T1, Human IL22; assay: cell-based or functional assay; remark: listed apart in the source

B1: 11041gL13gH14 Fab (Fab, V domains shown)
VH: EVQLVESGGGLVQPGGSLRLSCAVSGFSLSSYAMIWVRQAPGKGLEWIGIIDIEGSTYYASWAKGRFTISRDNSKNTVYLQMNSLRAEDTAVYYCARDRFVGVDIFDPWGQGTLVTVSS
VL: AVQLTQSPSSLSASVGDRVTITCQASEDIYTNLAWYQQKPGKAPKLLIYWASTLASGVPSRFSGSGSGTDFTLTISSLQPEDFATYYCQASVYGNAADSRYTFGGGTKVEIKR
notes: Humanized Fab; also called VR11041
B1 was tested, and the “IC50 (M), Geomean; COLO205 IL-10 release assay” value (Human IL22 [1]) was 4.27e-11 M, the Kd (Human IL22 [2]) was under 0.1 nM and the IL22 Binding at 20 nM (RU) (Human IL22 [3]) was 40 RU. The “IC50 (read off the curve), inhibition of IL-22-induced S100A7 release from human primary keratinocytes (NHEK)” value (Human IL22 [4]) was about 10 nM.

B2: rabbit 11041 Fab (Fab, V domains shown)
VH: QSVEESGGRLVTPGTPLTLTCTVSGFSLSSYAMIWVRQAPGEGLEWIGIIDIDGSTYYASWAKGRFTISRTSTTVDLKITSPTTGDTATYFCARDRFVGVDIFDPWGPGTLVTVSS
VL: AVVLTQTASPVSAPVGGTVTIKCQASEDIYTNLAWYQQKPGQPPKLLIYWASTLASGVPSRFKGSGSGTEFTLTISDLECADAATYYCQACVYGNSADSRYTFGGGTEVVVK
In the case of B2, the “IC50 (M), Geomean; COLO205 IL-10 release assay” value (Human IL22 [5]) is reported as 5.68e-11 M.
